Results published in patent US20210388110A1 (published 2021).
Residue numbers refer to the chain shown, from its start.

Molecular target: T1, soluble human CD3ε chain (human, UniProt P07766 23-126, limits assumed)
T1 construct: also called human CD3 epsilon chain
Test: SPR (Biacore), soluble human CD3ε chain

T1 sequence (P07766 23-126 limits assumed): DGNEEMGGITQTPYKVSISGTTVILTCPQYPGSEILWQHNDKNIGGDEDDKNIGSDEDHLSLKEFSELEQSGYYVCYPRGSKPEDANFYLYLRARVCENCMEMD

B1: TR01H023-E22Hh/none-Hi-Kn010G3/L0000-k0 (antibody, human IgG1, kappa, L234A L235A, N297A)
heavy: QVQLVESGGGLVQPGGSLRLSCAASGFTFSNAWMHWVRQAPGKGLEWVAQIKGKSQNYATYYAESVKGRFTISRADSKNSIYLQMNSLKTEDTAVYYCRYVHYSASYGVDIWGQGTTVTVSSASTKGPSVFPLAPSSKSTSGGTAALGCLVKDYFPEPVTVSWNSGALTSGVHTFPAVLQSSGLYSLSSVVTVPSSSLGTQTYICNVNHKPSNTKVDKKVEPKSCDKTHTCPPCPAPEAAGGPSVFLFPPKPKDTLMISRTPEVTCVVVDVSHEDPEVKFNWYVDGVEVHNAKTKPREEQYASTYRVVSVLTVLHQDWLNGKEYKCKVSNKALPAPIEKTISKAKGQPREPQVYTLPPSRCELTKNQVSLSCAVKGFYPSDIAVEWESNGQPENNYKTTPPVLDSDGSFFLVSKLTVDKSRWQQGNVFSCSVMHEALHNHYTQKSLSLSPDYKDDDDK
chain: EPKSSDKTHTCPPCPAPELLGGPSVFLFPPKPKDTLMISRTPEVTCVVVDVSHEDPEVKFNWYVDGVEVHNAKTKPREEQYNSTYRVVSVLTVLHQDWLNGKEYKCKVSNKALPAPIEKTISKAKGQPREPQVCTLPPSRDELTKNQVSLWCLVKGFYPSDIAVEWESNGQPENNYKTTPPVLDSDGSFFLYSKLTVDKSRWQQGNVFSCSVMHEALHNRYTQKSLSLSP
light: DIVMTQSPLSLPVTPGEPASISCRSSQSLVHSNRNTYLHWYQQKPGQAPRLLIYKVSNRFSGVPDRFSGSGSGTDFTLKISRVEAEDVGVYYCGQGTQVPYTFGQGTKLEIKRTVAAPSVFIFPPSDEQLKSGTASVVCLLNNFYPREAKVQWKVDNALQSGNSQESVTEQDSKDSTYSLSSTLTLSKADYEKHKVYACEVTHQGLSSPVTKSFNRGEC
notes: one-arm antibody (single Fab) with Fab-less hinge-Fc chain Hi-Kn010G3
Kd: 79.4 nM

B2: TR01H067-E22Hh/none-Hi-Kn010G3/L0248-k0 (antibody, human IgG1, kappa, L234A L235A, N297A)
heavy: B1 heavy with G16R, G53D, A75D, I81L, S104A, I111A
chain: B1 chain
light: B1 light with S25P, L29P, L38I, H39Q, G94Y
notes: as for B1
Kd: 139 nM

B3: TR01H082-E22Hh/none-Hi-Kn010G3/L0272-k0 (antibody, human IgG1, kappa, L234A L235A, N297A)
heavy: B1 heavy with G16R, G53D, A75D, I81L, S104A, S106G, I111A
chain: B1 chain
light: B1 light with S28P, N35Q
notes: as for B1
Kd: 74.4 nM

B4: TR01H040-E22Hh/none-Hi-Kn010G3/TR01L007-k0 (antibody, human IgG1, kappa, L234A L235A, N297A)
heavy: B1 heavy with G16R, G53D, I111A
chain: B1 chain
light: B1 light with R24Q, S25A, Q27E, Q42L, A48S, R50Q
notes: as for B1
Kd: 68.2 nM

B5: TR01H082-E22Hh/none-Hi-Kn010G3/L0268-k0 (antibody, human IgG1, kappa, L234A L235A, N297A)
heavy: B1 heavy with G16R, G53D, A75D, I81L, S104A, S106G, I111A
chain: B1 chain
light: B1 light with L29P, L38I, H39Q, G94V
notes: as for B1
Kd: 136 nM

B6: TR01H082-E22Hh/none-Hi-Kn010G3/L0222-k0 (antibody, human IgG1, kappa, L234A L235A, N297A)
heavy: B1 heavy with G16R, G53D, A75D, I81L, S104A, S106G, I111A
chain: B1 chain
light: B1 light with L29P, L38I, H39Q, G94Y
notes: as for B1
Kd: 101 nM

B7: TR01H067-E22Hh/none-Hi-Kn010G3/L0215-k0 (antibody, human IgG1, kappa, L234A L235A, N297A)
heavy: B1 heavy with G16R, G53D, A75D, I81L, S104A, I111A
chain: B1 chain
light: B1 light with S28P, L29P, L38I
notes: as for B1
Kd: 74.1 nM

B8: TR01H070-E22Hh/none-Hi-Kn010G3/L0000-k0 (antibody, human IgG1, kappa, L234A L235A, N297A)
heavy: B1 heavy with L11V, G53D, A75D, I81L, S104A, I111Y
chain: B1 chain
light: B1 light
notes: as for B1
Kd: 120 nM

B9: TR01H067-E22Hh/none-Hi-Kn010G3/TR01L018-k0 (antibody, human IgG1, kappa, L234A L235A, N297A)
heavy: B1 heavy with G16R, G53D, A75D, I81L, S104A, I111A
chain: B1 chain
light: B1 light with R24Q, S25A, Q27E, L29P, Q42L, A48S, R50Q
notes: as for B1
Kd: 52.6 nM

B10: TR01H034-E22Hh/none-Hi-Kn010G3/L0000-k0 (antibody, human IgG1, kappa, L234A L235A, N297A)
heavy: B1 heavy with G16R, I111A
chain: B1 chain
light: B1 light
notes: as for B1
Kd: 91.1 nM

B11: TR01H024-E22Hh/none-Hi-Kn010G3/L0000-k0 (antibody, human IgG1, kappa, L234A L235A, N297A)
heavy: B1 heavy with I111A
chain: B1 chain
light: B1 light
notes: as for B1
Kd: 108 nM

B12: TR01H067-E22Hh/none-Hi-Kn010G3/L0011-k0 (antibody, human IgG1, kappa, L234A L235A, N297A)
heavy: B1 heavy with G16R, G53D, A75D, I81L, S104A, I111A
chain: B1 chain
light: B1 light with S28P
notes: as for B1
Kd: 71.8 nM

B13: TR01H040-E22Hh/none-Hi-Kn010G3/L0248-k0 (antibody, human IgG1, kappa, L234A L235A, N297A)
heavy: B1 heavy with G16R, G53D, I111A
chain: B1 chain
light: B1 light with S25P, L29P, L38I, H39Q, G94Y
notes: as for B1
Kd: 78.9 nM

B14: TR01H067-E22Hh/none-Hi-Kn010G3/L0226-k0 (antibody, human IgG1, kappa, L234A L235A, N297A)
heavy: B1 heavy with G16R, G53D, A75D, I81L, S104A, I111A
chain: B1 chain
light: B1 light with L29P, L38I, G94I
notes: as for B1
Kd: 132 nM

B15: TR01H058-E22Hh/none-Hi-Kn010G3/L0000-k0 (antibody, human IgG1, kappa, L234A L235A, N297A)
heavy: B1 heavy with G16R, G53D, A75D, I81L, I111Y
chain: B1 chain
light: B1 light
notes: as for B1
Kd: 115 nM

B16: TR01H075-E22Hh/none-Hi-Kn010G3/L0000-k0 (antibody, human IgG1, kappa, L234A L235A, N297A)
heavy: B1 heavy with G16R, G53D, A75D, I81L, S104A, I111Y
chain: B1 chain
light: B1 light
notes: as for B1
Kd: 98.8 nM

B17: TR01H040-E22Hh/none-Hi-Kn010G3/L0226-k0 (antibody, human IgG1, kappa, L234A L235A, N297A)
heavy: B1 heavy with G16R, G53D, I111A
chain: B1 chain
light: B1 light with L29P, L38I, G94I
notes: as for B1
Kd: 80.1 nM

B18: TR01H067-E22Hh/none-Hi-Kn010G3/TR01L015-k0 (antibody, human IgG1, kappa, L234A L235A, N297A)
heavy: B1 heavy with G16R, G53D, A75D, I81L, S104A, I111A
chain: B1 chain
light: B1 light with L29P, Q42L, A48S, R50Q
notes: as for B1
Kd: 86.4 nM

B19: TR01H082-E22Hh/none-Hi-Kn010G3/L0271-k0 (antibody, human IgG1, kappa, L234A L235A, N297A)
heavy: B1 heavy with G16R, G53D, A75D, I81L, S104A, S106G, I111A
chain: B1 chain
light: B1 light with S28P, L29P, N35Q
notes: as for B1
Kd: 68.2 nM

B20: TR01H053-E22Hh/none-Hi-Kn010G3/L0000-k0 (antibody, human IgG1, kappa, L234A L235A, N297A)
heavy: B1 heavy with G16R, G53D, I81L, I111A
chain: B1 chain
light: B1 light
notes: as for B1
Kd: 82.3 nM

B21: TR01H040-E22Hh/none-Hi-Kn010G3/L0249-k0 (antibody, human IgG1, kappa, L234A L235A, N297A)
heavy: B1 heavy with G16R, G53D, I111A
chain: B1 chain
light: B1 light with S25P, L29P, L38I, H39Q, G94S
notes: as for B1
Kd: 111 nM

B22: TR01H054-E22Hh/none-Hi-Kn010G3/L0000-k0 (antibody, human IgG1, kappa, L234A L235A, N297A)
heavy: B1 heavy with G16R, G53D, I81L, I111Y
chain: B1 chain
light: B1 light
notes: as for B1
Kd: 77.9 nM

B23: TR01H031-E22Hh/none-Hi-Kn010G3/L0000-k0 (antibody, human IgG1, kappa, L234A L235A, N297A)
heavy: B1 heavy with L11V, Q56N
chain: B1 chain
light: B1 light
notes: as for B1
Kd: 75.5 nM

B24: TR01H082-E22Hh/none-Hi-Kn010G3/TR01L020-k0 (antibody, human IgG1, kappa, L234A L235A, N297A)
heavy: B1 heavy with G16R, G53D, A75D, I81L, S104A, S106G, I111A
chain: B1 chain
light: B1 light with R24Q, S25A, Q27E, L29P, L38I, H39Q, Q42L, A48S, R50Q, G94Y
notes: as for B1
Kd: 106 nM

B25: TR01H040-E22Hh/none-Hi-Kn010G3/L0247-k0 (antibody, human IgG1, kappa, L234A L235A, N297A)
heavy: B1 heavy with G16R, G53D, I111A
chain: B1 chain
light: B1 light with L29P, L38I, H39Q, G94I
notes: as for B1
Kd: 100 nM

B26: TR01H040-E22Hh/none-Hi-Kn010G3/L0227-k0 (antibody, human IgG1, kappa, L234A L235A, N297A)
heavy: B1 heavy with G16R, G53D, I111A
chain: B1 chain
light: B1 light with L29P, L38I, G94L
notes: as for B1
Kd: 101 nM

B27: TR01H035-E22Hh/none-Hi-Kn010G3/L0000-k0 (antibody, human IgG1, kappa, L234A L235A, N297A)
heavy: B1 heavy with G16R, I111Y
chain: B1 chain
light: B1 light
notes: as for B1
Kd: 84.9 nM

B28: TR01H082-E22Hh/none-Hi-Kn010G3/L0270-k0 (antibody, human IgG1, kappa, L234A L235A, N297A)
heavy: B1 heavy with G16R, G53D, A75D, I81L, S104A, S106G, I111A
chain: B1 chain
light: B1 light with N35Q
notes: as for B1
Kd: 74.2 nM

B29: TR01H067-E22Hh/none-Hi-Kn010G3/L0222-k0 (antibody, human IgG1, kappa, L234A L235A, N297A)
heavy: B1 heavy with G16R, G53D, A75D, I81L, S104A, I111A
chain: B1 chain
light: B1 light with L29P, L38I, H39Q, G94Y
notes: as for B1
Kd: 76.3 nM

B30: TR01H057-E22Hh/none-Hi-Kn010G3/L0000-k0 (antibody, human IgG1, kappa, L234A L235A, N297A)
heavy: B1 heavy with G16R, G53D, A75D, I81L, I111A
chain: B1 chain
light: B1 light
notes: as for B1
Kd: 112 nM

B31: TR01H068-E22Hh/none-Hi-Kn010G3/L0000-k0 (antibody, human IgG1, kappa, L234A L235A, N297A)
heavy: B1 heavy with L11V, G53D, A75D, I81L, S104A, I111A
chain: B1 chain
light: B1 light
notes: as for B1
Kd: 101 nM

B32: TR01H056-E22Hh/none-Hi-Kn010G3/L0000-k0 (antibody, human IgG1, kappa, L234A L235A, N297A)
heavy: B1 heavy with G16R, G53D, A75D, I81L
chain: B1 chain
light: B1 light
notes: as for B1
Kd: 73.2 nM

B33: TR01H082-E22Hh/none-Hi-Kn010G3/TR01L017-k0 (antibody, human IgG1, kappa, L234A L235A, N297A)
heavy: B1 heavy with G16R, G53D, A75D, I81L, S104A, S106G, I111A
chain: B1 chain
light: B1 light with L29P, L38I, H39Q, Q42L, A48S, R50Q, G94Y
notes: as for B1
Kd: 109 nM

B34: TR01H040-E22Hh/none-Hi-Kn010G3/L0246-k0 (antibody, human IgG1, kappa, L234A L235A, N297A)
heavy: B1 heavy with G16R, G53D, I111A
chain: B1 chain
light: B1 light with L29P, L38I, H39Q, G94S
notes: as for B1
Kd: 92.8 nM
